Results taken from PMC6249601.

Target: EBOV GP.10xhis
Assay: SPR
Conditions: for increase in kd values at pH 5.0: second pH 7.4

Substance	koff (pH 5.0) [s⁻¹]	t 1/2 (min) (pH 5.0)	koff (pH 6.0) [s⁻¹]	t 1/2 (min) (pH 6.0)	koff (pH 7.4) [s⁻¹]	t 1/2 (min) (pH 7.4)	increase in kd values at pH 5.0
REGN3471	0.000332	34.8	0.000221	52.3	0.000195	59.1	less than 2-fold
REGN3479	0.000202	57.3	0.000214	55.1	7.83e-05	148	3-fold
REGN3470	0.000491	23.5	0.000367	31.4	0.000432	26.7	less than 2-fold
